Experimental data: patent US20190352419A1 (ALX ONCOLOGY, published 2019)

T1: NOD mouse SIRP-α protein (mouse (NOD strain))
T1 construct: Soluble SPR analyte
T1 chain: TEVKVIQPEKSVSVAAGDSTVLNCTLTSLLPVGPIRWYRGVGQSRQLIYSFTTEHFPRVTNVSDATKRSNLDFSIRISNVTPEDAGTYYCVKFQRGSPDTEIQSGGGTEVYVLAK

T2: cynomolgus SIRP-α (SEQ ID NO:11) (cynomolgus, UniProt Q5TFQ8 30-148 (human entry))
T2 construct: 'extracellular domain (e.g., the D1 domain)' of a cynomolgus SIRP-α polypeptide; soluble SPR analyte; also called cyno1
T2 chain: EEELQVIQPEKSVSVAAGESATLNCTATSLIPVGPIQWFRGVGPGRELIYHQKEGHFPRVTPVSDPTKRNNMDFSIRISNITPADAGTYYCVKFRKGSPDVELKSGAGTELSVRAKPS

T3: BL6 mouse SIRP-α protein (mouse (C57BL/6 strain), UniProt P97797 32-148)
T3 construct: Soluble SPR analyte; also called C57BL/6
T3 sequence: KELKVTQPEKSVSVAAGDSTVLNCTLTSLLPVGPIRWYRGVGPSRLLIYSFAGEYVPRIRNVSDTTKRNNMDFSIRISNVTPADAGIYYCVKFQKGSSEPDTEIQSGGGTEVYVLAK

T4: BALBc mouse SIRP-α protein (mouse (BALB/c strain))
T4 construct: Soluble SPR analyte
T4 chain: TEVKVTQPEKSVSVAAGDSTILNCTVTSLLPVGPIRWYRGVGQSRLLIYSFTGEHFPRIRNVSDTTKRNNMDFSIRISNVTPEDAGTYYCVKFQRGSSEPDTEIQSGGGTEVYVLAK


Legend:
NOD mouse SIRP-α protein = molecular target: T1, NOD mouse SIRP-α protein; assay: binding affinity KD (SPR; method not restated in Example 7)
[1] = molecular target: T2, cynomolgus SIRP-α (SEQ ID NO:11); assay: as above
BL6 mouse SIRP-α protein [2] = molecular target: T3, BL6 mouse SIRP-α protein; assay: as above
human SIRP-β = molecular target: T5, human SIRP-β (human, UniProt O00241 30-148); assay: as above
T5 construct: also called SIRPb; hSIRPb
T5 sequence (O00241 30-148): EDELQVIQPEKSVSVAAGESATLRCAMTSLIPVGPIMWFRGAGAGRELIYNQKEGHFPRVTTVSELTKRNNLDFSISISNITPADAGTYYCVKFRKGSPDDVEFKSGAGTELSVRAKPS

[3] = molecular target: T4, BALBc mouse SIRP-α protein; assay: as above
human SIRP-α v1 [4] = molecular target: T6, human SIRP-α v1 (human, UniProt P78324 31-149); assay: as above
T6 construct: used as soluble SPR analyte; also called Human V1; hSIRPa v1
T6 sequence (P78324 31-149): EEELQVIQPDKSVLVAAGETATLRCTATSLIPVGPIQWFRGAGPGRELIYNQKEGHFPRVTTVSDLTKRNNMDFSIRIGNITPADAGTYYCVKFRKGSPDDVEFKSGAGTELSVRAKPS

human SIRP-α v2 = molecular target: T7, human SIRP-α v2 (human); assay: as above
T7 construct: soluble SPR analyte; also called Human V2; hSIRPa v2
T7 sequence (chain, as listed by the source): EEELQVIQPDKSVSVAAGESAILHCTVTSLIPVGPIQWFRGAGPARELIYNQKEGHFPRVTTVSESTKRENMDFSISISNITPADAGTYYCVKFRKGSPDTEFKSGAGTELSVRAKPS

human SIRP-γ = molecular target: T8, human SIRP-γ (human, UniProt Q9P1W8 29-147); assay: as above
T8 construct: also called SIRPg; hSIRPg
T8 sequence (Q9P1W8 29-147): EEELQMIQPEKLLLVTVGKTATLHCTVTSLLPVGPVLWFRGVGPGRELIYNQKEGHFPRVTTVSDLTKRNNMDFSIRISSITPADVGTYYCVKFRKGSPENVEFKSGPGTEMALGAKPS

human SIRP-α v1 [5] = molecular target: T6, human SIRP-α v1; assay: SPR (refers to Table M)
BL6 mouse SIRP-α protein [6] = molecular target: T3, BL6 mouse SIRP-α protein; assay: SPR KD (ProteOn XPR36), antibody on chip, SIRP analyte in solution

Binder	Kd (NOD mouse SIRP-α protein) [nM]	Kd [1] [nM]	Kd (BL6 mouse SIRP-α protein [2]) [nM]	Kd (human SIRP-β) [nM]	Kd [3] [nM]	Kd (human SIRP-α v1 [4]) [nM]	Kd (human SIRP-α v2) [nM]	Kd (human SIRP-γ) [nM]	Kd (human SIRP-α v1 [5]) [nM]	Kd (BL6 mouse SIRP-α protein [6]) [nM]
PC301 (antibody, human IgG1, lambda, N297A, also called antibody PC301) heavy: not shown light: SYELTQPPSVSVSPGQTARITCSGGSYSSYYYAWYQQKPGQAPVTLIYSDDKRPSNIPERFSGSSSGTTVTLTISGVQAEDEADYYCGGYDQSSYTNPFGGGTKLTVLGQPKAAPSVTLFPPSSEELQANKATLVCLISDFYPGAVTVAWKADSSPVKAGVETTTPSKQSNNKYAASSYLSLTPEQWKSHRSYSCQVTHEGSTVEKTVAPTECS	2.93	0.0389	9.25	0.0122	9.53	0.00206	–	–	–	–
PC367 (antibody, human IgG2, lambda, N297A, AB21 MutAll VH + human IgG2 N297A; Hum1 VL version 2 + IGLC1 SD light chain) heavy: EVQLVESGGGVVQPGGSLRLSCAASGFTFSSNAMSWVRQAPGKGLEWVAGISAGGSDTYYPASVKGRFTISRDNSKNTLYLQMNSLRAEDTAVYYCARETWNHLFDYWGQGTLVTVSSASTKGPSVFPLAPCSRSTSESTAALGCLVKDYFPEPVTVSWNSGALTSGVHTFPAVLQSSGLYSLSSVVTVPSSNFGTQTYTCNVDHKPSNTKVDKTVERKCCVECPPCPAPPVAGPSVFLFPPKPKDTLMISRTPEVTCVVVDVSHEDPEVQFNWYVDGVEVHNAKTKPREEQFASTFRVVSVLTVVHQDWLNGKEYKCKVSNKGLPAPIEKTISKTKGQPREPQVYTLPPSREEMTKNQVSLTCLVKGFYPSDIAVEWESNGQPENNYKTTPPMLDSDGSFFLYSKLTVDKSRWQQGNVFSCSVMHEALHNHYTQKSLSLSPG light: SYELTQPPSVSVSPGQTARITCSGGSYSSYYYAWYQQKPGQAPVTLIYSDDKRPSNIPERFSGSSSGTTVTLTISGVQAEDEADYYCGGYDQSSYTNPFGGGTQLTVLGQPKANPTVTLFPPSSEELQANKATLVCLISDFYPGAVTVAWKADGSPVKAGVETTKPSKQSSDKYAASSYLSLTPEQWKSHRSYSCQVTHEGSTVEKTVAPTECS	6.37	0.0501	19.7	0.0327	7.87	0.00211	0.0823	0.0352	–	–
PC334 (antibody, human IgG1, lambda, N297A, Original Hum1 VL + IGLC1 light chain; also called antibody PC334; Hum1_IGLC1) heavy: not shown light: SYELTQPPSVSVSPGQTARITCSGGSYSSYYYAWYQQKPGQAPVTLIYSDDKRPSNIPERFSGSSSGTTVTLTISGVQAEDEADYYCGGYDQSSYTNPFGGGTKLTVLGQPKANPTVTLFPPSSEELQANKATLVCLISDFYPGAVTVAWKADGSPVKAGVETTKPSKQSNNKYAASSYLSLTPEQWKSHRSYSCQVTHEGSTVEKTVAPTECS	8.19	0.0774	3.29	0.0371	6.75	0.0151	0.0438	0.0452	–	–
Hum8/AB21_HC_Mutall (antibody, V domains shown) VH: EVQLVESGGGVVQPGGSLRLSCAASGFTFSSNAMSWVRQAPGKGLEWVAGISAGGSDTYYPASVKGRFTISRDNSKNTLYLQMNSLRAEDTAVYYCARETWNHLFDYWGQGTLVTVSS VL: SYELTQPPSVSVSPGQTARITCSGGAYSSYYYAWYQQKPGQAPVLVIYSDSKRPSGIPERFSGSSSGTTVTLTISGVQAEDEADYYCGGYDQSSYTNPFGGGTKLTVL	–	–	–	–	–	–	–	–	≤ 0.01	415000
Hum9/AB21_HC_Mutall (antibody, V domains shown) VH: EVQLVESGGGVVQPGGSLRLSCAASGFTFSSNAMSWVRQAPGKGLEWVAGISAGGSDTYYPASVKGRFTISRDNSKNTLYLQMNSLRAEDTAVYYCARETWNHLFDYWGQGTLVTVSS VL: SYELTQPPSVSVSPGQTARITCSGGAYSSYYYAWYQQKPGQAPVLVIYSDDKRPSGIPERFSGSSSGTTVTLTISGVQAEDEADYYCGGYDQSSYTNPFGGGTKLTVL	–	–	–	–	–	–	–	–	≤ 0.01	533000
